Test: soluble on expression in E. coli; label from the status in PepcDB or PDB records

Sequence	soluble on expression in E. coli
MGSDKIHHHHHHMSSRNRIIWREGLFIKPQHFQQQQRHTDYALHARLSALSDYFYGLQSLAINEEYLNFGRIALVNASGVMPDGTVFNIPGDDALPLPLEITDVALANQKVYLALPLAVNGVSEVGQPGQGIASRLQSHRHDVRDLHSDGGDIVSLEVGKVSLRLMLDRDDRSAYASLAIANILDKRPDGGLILDPNFMPCSISVTAIPTLKRFLGESAGLVAERARSLAQRIAAPGQQGVADVAEFMMLQLLNRAQPKLSHLARLGTLHPERLHETLVELCGELMTFTDESRLPPEFPAYRHEHQQASFEPLMMALRQALSTVLSPRAVSIQLKKQPYGVMVAMVGDAELMTSAEFVLAVRARMPQEHLRKQLLQQTKIASSEKIRELISLQLPGIPLLPLPVAPRQLPYHAGYSYFQLDRQSPAWQVLVSGNTLAFHIAGEFPELDMQLWAIRGQ	not soluble
MVAISEIKSTVDVTAANCLMLLSRVGQENVDGGDQKRVFTCKTCLKQFHSFQALGGHRASHKKPNNDALSSGLMKKVKTSSHPCPICGVEFPMGQALGGHMRRHRNESGAAGGALVTRALLPEPTVTTLKKSSSGKRVACLDLSLGMVDNLNLKLELGRTVY	not soluble
MITVVGGTFSKLHKGHKALLNTAIDTGNEVVIGLTSDEYVKKNKVYPAIPYSVRYRTLYNYMIKRTNKFRIRQIDDRNGNAPYEKDYEVIVVSPETYPRSLKINEIRISNGLPPLKIIRVPYVLAQDLFPISSTRIINGEID	not soluble
MKIMIIGATGMAGQALVTTALNRGHQVVAVARSAEKLATLPSNPNLTSIVRDAFNLTTTDLSAVDAVVDAFATAPDHAYLHVDLATHLISQLRETTTPRVAFILGAGSLTTGDDAHLFVHDLEQDPHAASFISVPQNQLKELTFLRDVDNVNWFGVSPAADFHPGEAQPALLGTDTLLFNDQQQSGTSAGTMAVAILDELENPLEHHHHHH	not soluble
KNVNRVLSAEALKPGMLLTGTVSSLEDHGYLVDIGVDGTRAFLPLLKAQEYIRQKNKGAKLKVGQYLNCIVEKVKGNGGVVSLSVGHSEVSTAIATEQQSWNLNNL	soluble
MQDFKKLPTVLTAEELIDKIFRRAARVEGRNPKEKALNKLATISNVSRDYFGKIIGAHPSYENLPDFYREMVDVVVGIRQLKKSLVALKWADGMIQKVVSRAVREVKGGKNPSAVVKSAYGRVASIIEQIDDELRFLNDAKNRMREIPILQDLPTIVVAGYPNVGKSSLVARISTVKPEVASYPFTTKKINLGFAEFAGKRVQIIDTPGLLDRPLSKRNRIERRAVLALKHLADIILFVIDPTETCGYSLEKQLSLLEEIKGYFAKPTVEVYSKADMHDRRDRQAYSAVTGEGIDELIKEIEKMVKIHSQTSTVIAPSGQTSTQEQHSAAALEHHHHHH	not soluble
GMVYVDPDRFDELVAEALDGIPEEFARAMRNVAVFVEDEPDDPELLGLYVGIPLTERTTAYGGVLPDRIIIYRNTICALCETESEVIDEVRKTVVHEIAHHFGIDDERLHELGY	soluble
MSLANILAIDDSGLMQAFWVRILSRSQHNVITVSSGDEMRGVLATMNPQLIFLDLSFPGENGFELLQHIRSYQHCLEIPVIAVSGYAGEDTRQACREAGFTDFLAKPFSLAELRGMLARYLDHATEGHHHHHH	not soluble
MEEVKDDKTYKGFVDRLTLGITRVLENLPGVLDVRFVEKAPAEKRCLLSWEQKNNCALPEDLRDFYLTTDGFMLAWNSKLENEVVPVGCMMINNVAQLRPLIQSNVYCLPNAPTLADLDFDDDIDGSDGPEKPHFDLRSRIFELDSCNGNGKVCLVYKSCSPGVMAQQCEVWFLDRSLFWHYLTPSFTAYYRLMITHLGLPEWQYNFTPYGPSPQAKQWAALYQPLTFHSDPHLDTSSEPFLNKLDPTKAFRGKAKPPTPKKKQPAQVPASGTGTAKGQGLSGRHSVAKR	soluble
MSLDYSTSLRFQSQLERSMTEALNALGYYHPSIDFTVSEDNQRLRAAVTLGEVTRLSEVDIVIRGEAEGDRDFQRLIRRSGLRVDAPLNHSLYDNLKSGIRNLALQKGYFNGDFQASRLEVIPELNQARVILHFDSGIRYLFGATTVEGSQIDENRVMSLRPFKQGEPYLVSQVGEFNQNLSNTDWFSSVFVEPDLSQLDEGRELPIKVTLAPQARNQLETGLGYSTDVGVRGSLKWKKPWVNSQGHSFDSSFSLSIPEQTITAGYKIPLEDALNEYYRIQYGMKHLDKRDTESLESNLSLERHWQLDGGWHRTVFIRYLLENYRQGLQDDNSQFLLPGMTYTRTRTRSNSGLLTWGDKQTITLEYGDPALLSETRVLRLQTGSSWLRTYARNHRALVRVDGGANLVDEFDQLSPSLRFFAGGDNNLRGYGYKSISPQDASGALTGAKYIATSSIEYQYRLTGNWWAAMFMDVGDAFNDNPEWKKGVGTGIRWISPVGPIRLDFAWGLDAAPGDEFKIHFTLGPELEGHHHHHH	not soluble
MGSDKIHHHHHHMSETNAQKVQEVIIAGMSKTVANYDYAMSELEALVAANNMHAALRIDQGLEKPNPATFFGKGKVVEIKEVAAANDLHIMVINADLTPSQVRNLEEQTDIQIIDRTGLILEIFGNRARSKEAKLQVKIAQLQYQLPRLRTSISNRLDQQAGAAAGGGGGFTNRGAGETQLELNRRTIQDRISHAKHELKELNKDEVVRRSQRDKAGLPNVALVGYTNAGKSTTMNGLVKLFGKGEDKQVFEKDMLFATLDTSIRQLTFPDNKQLLLSDTVGFVSDLPHNLINAFRSTLAEAANADLLIQVIDYADPHYKEMMATTEKTLKEIGVHDVPMIYAFNKADLTEADYPNQQDDQLIYTARDEASLQALTSMIKAKVFKNYVTTTLLIPFNDGEVVAYLNDHANILKTDYLADGTQLTVELNTVDAQRYEKYVVTPA	not soluble
ADVILFPSKNGAVTFTHKRHSEFVRECRSCHEKTPGKIRNFGKDYAHKTCKGCHEVRGAGPTKCKLCHTG	soluble
MADGEAVISTVNNVEEVHGQLFEVAPRYVNLSYIGEGAYGMVASALDTITRDRVAIKKISPFEHQTFCQRTLREIKILNRFKHENIINIQEIIRSETVDSLKDIYIVQCLMETDLYKLLKTQKLSNDHVCYFLYQILRGLKYIHSANVLHRDLKPSNLLLNTTCDLKICDFGLARVTDPQTDHTGFLTEYVATRWYRAPEIMLNSKGYTKSIDVWSVGCILAEMLSNRPLFPGKHYLDQLNLILAVVGSPSNADLQCIINDKARSYLISLPHKPKQPWARLYPGADPRALDLLDKMLTFNPHNRIDIEQALAHPYLEQYYDPGDEPVCEEPFTLEMEFDDLPKEKLKELIWEEAEAHHRRMEAEAAARNNGGQNPV	not soluble
MSLKHSKIRIAHISDIHIGSRLDKLPQKMVNKIIEENPDLVVITGDLIDSHNVISTDLASFNAFKERNIPIYYTIGNHDIMAGEEYVSSILEYYGIIYLKNQVTQITIGDETIQLVGIDDVQSITKYNEIFNSITPSIHNNIYTILLHHRPQGYKTSVQSGQIDLQLAGHTHDGQVFPFNYIVPLFHSKSYGMYHIKDTSKELILYTHPGSCAWGPHFRTAAKNLITIFSIESSNEGHHHHHH	soluble
MSSAHNAYNAGIMQKTGKAFADEFFAEENQVVHESNAVVLVLMKSDEIDAIIEDIVLKGGKAKNPSIVVEDKAGFWWIKADGAIEIDAAEAGELLGKPFSVYDLLINVSSTVGRAYTLGTKFTITSELMGLDRALTDI	soluble
MIDQLQVGPNPLVGLLDDVHMLEVQRDSGVANILNSPEIKKRHYNATRKRVNRRDSTIVEPEAKSRKMDENWTGVGTESESTDCVETTETRFTWFKAQTKHPGLAKSLQSEVTKVGLSIVDLQHCTLPCKSINYNFHFYSFKGLSREDSKKFEEMIDQNFVNNFCAENLLNKEDKNFFYYDLGYKQVVSLSMLATYFKIKNEQPLLHPLKMLLNKQLLKKAFEDADTHVELKKYLSKNGYSKLVQWMEEMTQ	not soluble
MTVTFQNNPVSISGSFPKVGDRLPSFTLCGADLNDLSNEDFKGKKIVMSIFPSIDTPVCSKSVKVLQNALMTRNDTVLLCVSADLPFAMSRFCTEHAVANVTNASFFREPAFTERFGVNLNEGALRGLAARAVIVADEFGVITHSELVNEITNEPDYDRILMSL	not soluble
MPRKQRVVTTPSPPTSDEDEDMDFGSTSQQQQQQPTRNNDGLSGFKSITEIIAEADNNIPSEQIDKDIDSFSSYSDISDWRGIPKFFPSLSSLSRRASTYENWENRFKVVDYLVSCSGALKDSVSDYVADYFEKNESGEDHSVDVELVHAVSMFVILTQRLTVQLQLYVSKSIASANQQAKRGTGRGGRQVDLDDDIVKWKDIQRHRMINCLLELLELRVDTVAGTKKKAIQYVFAPDVMEKDFLLRFLDTVVQLLEDPENMARSSQQWISHYFRILKVLSADYGMTKDVANCLFTALSHSYLEAANTFPFIEPLVTLMKENGEGSGRIYQPLRNVLQLVICRVGNLYAGERAEKPPPKAFCMMVQSLAINVHDLMLQDITHVYRLLQNQHVNVRMSTLHALADMFSSSYLSQSLCDTFASRRLKREGIFKRLLAHTNDEATNVRSKAVSLLRNIMENRRIPEEFESCGLLSIVGSRLNDKSVQVRKSAIQFLTTFLDNNRHGHDFNREMHQLKLNAKCSELRNAEEPQSKAIQGAENAFRQNLFTLTAGVRVEVYDIFRRRYRVEPERSITDILTGLFSPGSGNRLVRYYVAQENFPFRDRIPSLRERRSDDMEDDDDDTVSLEDDDMTSLVSEVVKWVVAQAEEDYVTFKVQLTQMDDDQLLENEQEARDRNNQIMQLRAQVQQLINKMSIEQELSRCVTIALRCVLNGETAEIKEGIRFLTRCKLFEITGADDAIRSMCSLVWRPSADILNELIEAAEDMFISRLDGNEKASERDSSTVENLMKAMNGVTEKDRPSVEEVIYLLAATELVHVDSDKNKVPRKRRPIEANVINKLWMIALDMSHGINSRKIDALRILYPISRSERGIAEARSRLRVVQKKLMDPELAVDALRIISILGTPTKLENEQDAYSRPLFKIHQDDSLWKSIEKLFFYEIMKADDNPDRDWFGVIRLTITTILSLSMDVNVMLPKLASHFVYRTKRISDFFLFYCDQVDDATDDTRKKMAQRRREYWALTYCRVMEKLMAFIGEVAVQLNAYIQVTIPKLHTRYVSKMVDAEKNDANIREEPVRFLSDLEKSVAQRKTIFTVPQDTTPGATSNDLHHLVSVMCDKRLFVPNKLMGRLLPIVVYGMRCKIMPTRIRHAATVAYGKMMPLSAEISAFAAPSFFSAMTKSSSILLRCNLVAACCDFAFAQPTLFELFAQSLFRMSQDESPLARESTILVLSHLMSNDMIQTRGVLSEAARCICDPTRAVRDVAQSFFKELNSRTDTIIQLLPEFLYHLSNGNERMSFKSYKTVFEFLIQLLKDKPKASADSMIDRVCIKFSNTDMNDSETPKYLLVALAKFVQNDGGLHRLQDNWRHWSKFMCHPSVAKEYRMMVEHMHSTSKNDEFKSQCVELIDNINKIESEGLRKEDVAIGSSITKNKGRAKKNPTTMSGSSRTTSRAANSRRRAPPPAQSDEDDSDSDDAPAAPRSAARRKAKKSAVADDDSDSDEFMLDD	not soluble
SEDDLTKVLNYTKQRQTEPNPEYYGVAKKKNIIKIHLESFQTFLINKKVNGKEVTPFLNKLSSGKEQFTYFPNFFHQTGQGKTSDSEFTMDNSLYGLPQGSAFSLKGDNTYQSLPAILDQKQGYKSDVMHGDYKTFWNRDQVYKHFGIDKFYDATYYDMSDKNVVNLGLKDKIFFKDSANYQAKMKSPFYSHLITLTNHYPFTLDEKDATIEKSNTGDATVDGYIQTARYLDEALEEYINDLKKKGLYDNSVIMIYGDHYGISENHNNAMEKLLGEKITPAKFTDLNRTGFWIKIPGKSGGINNEYAGQVDVMPTILHLAGIDTKNYLMFGTDLFSKGHNQVVPFRNGDFITKDYKYVNGKIYSNKNNELITTQPADFEKNKKQVEKDLEMSDNVLNGDLFRFYKNPDFKKVNPSKYKYETGPK	soluble
LEAPRDLEAKEVTPRTALLTWTEPPVRPAGYLLSFHTPGGQTQEILLPGGITSHQLLGLFPSTSYNARLQAMWGQSLLPPVSTSFTTGGLRI	soluble
